Assays:
[1] = biological target: T1, His-tagged cynomolgous macaque BCMA (Acro Biosystems, BCA-C52H7) (cynomolgus macaque, UniProt Q02223 1-54 (human entry)); assay: ELISA, coated Cyno BCMA-His
T1 construct: Bought protein; also called cyno BCMA; CyBCMA; not shown: His tag

[2] = biological target: T2, Human BCMA-His (Sino Biological, 10620-H08H) (human, UniProt Q02223 1-54); assay: ELISA, coated Human BCMA-His
T2 construct: not shown: His tag
T2 sequence: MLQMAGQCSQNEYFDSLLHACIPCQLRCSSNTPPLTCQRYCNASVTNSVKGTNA

[3] = biological target: T3, Human HER3-His (Sino Biological, 10201-H08H) (human, UniProt P21860 20-643); assay: ELISA, coated Human HER3-His
T3 construct: Specificity control; also called Human HERS-His

[4] = biological target: T4, His-tagged human BCMA (Acro Biosystems, Cat. #BCA-H522y) (human, UniProt Q02223 1-54); assay: ELISA, coated His-tagged human BCMA
T4 construct: also called huBCMA; P1; not shown: His tag
T4 sequence: T2 sequence

[5] = biological target: T5, recombinant his-tagged human TACI (Sinobiological cat #11937-H08H) (human, UniProt O14836 1-165); assay: ELISA, coated His-tagged human TACI
T5 construct: Bought protein; also called Human TACI-His; huTACI; not shown: His tag
T5 sequence: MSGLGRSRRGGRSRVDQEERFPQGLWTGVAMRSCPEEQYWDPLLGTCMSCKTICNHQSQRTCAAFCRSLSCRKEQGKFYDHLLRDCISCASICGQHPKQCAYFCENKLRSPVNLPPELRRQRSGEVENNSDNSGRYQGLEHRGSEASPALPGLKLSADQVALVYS

[6] = biological target: T4, His-tagged human BCMA (Acro Biosystems, …); assay: ELISA, coated His-tagged human BCMA; remark: listed apart in the source
[7] = biological target: T6, human BCMA expressed on cells (human, UniProt Q02223 1-184); assay: flow cytometry, H929 cells (BCMA+)
T6 construct: the cell line is named under assay; also called wildtype human BCMA
T6 sequence: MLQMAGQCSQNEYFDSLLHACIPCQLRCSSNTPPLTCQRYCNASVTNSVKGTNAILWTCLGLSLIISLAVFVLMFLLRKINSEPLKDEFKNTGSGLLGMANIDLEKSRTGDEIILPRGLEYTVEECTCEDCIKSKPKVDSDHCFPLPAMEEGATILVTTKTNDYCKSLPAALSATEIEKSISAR

[8] = biological target: T4, His-tagged human BCMA (Acro Biosystems, …); assay: BLI, His-tagged human BCMA on HIS1K tip
[9] = biological target: T1, His-tagged cynomolgous macaque BCMA …; assay: ELISA, coated His-tagged cynomolgus BCMA
[10] = biological target: T4, His-tagged human BCMA (Acro Biosystems, …); assay: ELISA, reference antibody, coated His-tagged antigen
[11] = biological target: T1, His-tagged cynomolgous macaque BCMA …; assay: BLI, His-tagged cynomolgus BCMA on HIS1K tip
[12] = biological target: T6, human BCMA expressed on cells; assay: flow cytometry, H929 cells (BCMA-expressing)
[13] = biological target: T4, His-tagged human BCMA (Acro Biosystems, …); assay: BLI, His-tagged human BCMA on HIS1K tip; R2 0.9957
[14] = biological target: T6, human BCMA expressed on cells; assay: flow cytometry, HEK 293 cells expressing human BCMA
[15] = biological target: T1, His-tagged cynomolgous macaque BCMA …; assay: BLI, His-tagged cynomolgus BCMA on HIS1K tip; R2 0.9963
[16] = biological target: T4, His-tagged human BCMA (Acro Biosystems, …); assay: BLI, His-tagged human BCMA on HIS1K tip, no APRIL; R2 0.9957
[17] = biological target: T7, human TACI expressed on cells (human, UniProt O14836 1-293); assay: flow cytometry, HEK 293 cells transiently expressing human TACI
T7 construct: also called wildtype human TACI
T7 sequence: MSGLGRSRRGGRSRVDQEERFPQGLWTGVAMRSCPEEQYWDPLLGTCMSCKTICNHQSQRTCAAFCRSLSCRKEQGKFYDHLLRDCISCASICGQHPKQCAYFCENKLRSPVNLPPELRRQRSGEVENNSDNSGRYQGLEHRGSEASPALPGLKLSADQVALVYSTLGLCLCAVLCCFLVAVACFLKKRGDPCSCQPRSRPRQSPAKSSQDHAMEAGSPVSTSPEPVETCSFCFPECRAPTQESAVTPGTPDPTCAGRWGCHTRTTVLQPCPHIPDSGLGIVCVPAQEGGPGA

[18] = biological target: T4, His-tagged human BCMA (Acro Biosystems, …); assay: competition ELISA: His-tagged human BCMA binding to coated APRIL-Fc in the presence of the antibody
[19] = biological target: T4, His-tagged human BCMA (Acro Biosystems, …); assay: as above; remark: listed apart in the source

B1: J6M0 (antibody, V domains shown)
VH: QVQLVQSGAEVKKPGSSVKVSCKASGGTFSNYWMHWVRQAPGQGLEWMGATYRGHSDTYYNQKFKGRVTITADKSTSTAYMELSSLRSEDTAVYYCARGAIYDGYDVLDNWGQGTLVTVSS
VL: DIQMTQSPSSLSASVGDRVTITCSASQDISNYLNWYQQKPGKAPKLLIYYTSNLHSGVPSRFSGSGSGTDFTLTISSLQPEDFATYYCQQYRKLPWTFGQGTKLEIK
notes: also called J6M0-hIgG1; anti-BCMA
- EC50 [1]: 0.015 nM
- EC50 [2]: 0.018 nM
- binding result [3]: no binding (tested: log M about -7.7 (3 ug/ml per paragraph 742))
- EC50 (read off the curve) [4]: ~0.007 µg/mL
- binding result [5]: no binding (tested: 10 ug/ml)
- EC50 [6]: 0.044 nM
- EC50 [7]: 1.77 nM
- Human BCMA response [8]: 2.53
- EC50 (read off the curve) [9]: ~0.01 µg/mL
- EC50 [10]: 0.0126 µg/mL
- Cyno BCMA response [11]: 2.16
- EC50 (read off the curve) [12]: ~1 µg/mL
- Kd [13]: < 0.001 nM
- EC50 [14]: 10.1 nM
- Kd [15]: < 0.001 nM
- Kd [16]: < 0.001 nM
- binding result [17]: no binding (tested: 10 ug/ml)
- IC50 (read off the curve) [18]: ~0.5 µg/mL
- IC50 [19]: 0.92 nM

Reference: patent publication US20230374147A1 (HUMMINGBIRD BIOSCIENCE PTE, published 2023)
